The values below are quoted from earlier work in publication PMC7911819.

In this data set the target is calmodulin (Homo sapiens) (UniProt P0DP23).

What is called Kd is a measure of binding affinity in units of concentration. In the case of CyaA 1-370 (from UniProt P0DKX7), the Kd was less than 100 pM.
